Assay results: US20170306001A1

Tests used:
[1] = molecular target: DL06-HA, full length HA of A/duck/Laos/3295/2006(H5N1) (clade 2.3.4) (influenza A virus A/duck/Laos/3295/2006(H5N1))
[2] = molecular target: Hatay04-HA, full length HA of A/chicken/Hatay/2004(H5N1) (clade 1) (influenza A virus A/chicken/Hatay/2004(H5N1))
[3] = molecular target: VN04-HA, full length HA of A/Vietnam/1203/2004(H5N1) (clade 1) (influenza A virus A/Vietnam/1203/2004(H5N1))
[4] = molecular target: VN04-HA, full length HA of A/Vietnam/1203/2004(H5N1) (clade 1) (influenza A virus A/Vietnam/1203/2004(H5N1)); assay: cell-based or functional assay
[5] = molecular target: DL06-HA, full length HA of A/duck/Laos/3295/2006(H5N1) (clade 2.3.4) (influenza A virus A/duck/Laos/3295/2006(H5N1)); assay: cell-based or functional assay
[6] = molecular target: Indo05-HA, full length HA of A/Indonesia/5/2005(H5N1) (clade 2.1) (influenza A virus A/Indonesia/5/2005(H5N1)); assay: cell-based or functional assay

B1: xi-IgA1-9F4 (antibody, V domains shown)
VH: QVQLQQSEAELARPGASVKMSCKASGFTLTTFTIHWVKQRPGQGLEWIGYINPRSGYTDYNQKFKDNTTLTVDKSSSTAYMQLSSLTSEDSAVFYCARSYYDYDVFDYWGQGTTLTVSS
VL: DVQMTQSPSSLSASLGGKVTITCTARQDINKYIAWYQHKPGKGPRLLIHYTSTLQPGIPSRFSGSGSGTDYSFTISNLEPEDIATYYCLQYDNLVTFGGGTKLELKR
Question: How did the endpoint titre [1] turn out when B1 was run?
Answer: 1250 ng/mL

Question: What about the endpoint titre [2] of the same binder?
Answer: 1250 ng/mL

Question: What about the endpoint titre [3] of the same binder?
Answer: 1250 ng/mL

Question: What about the IC50, entry of HA-pseudotyped lentiviral particles into MDCK cells (luciferase) [4] of the same binder?
Answer: 100 ng/mL

Question: And the fold change of IC50 in the HApp neutralization assay against mouse-9F4 [4]?
Answer: 10 fold

Question: And the inhibition of VN04-HApp entry at 1000 ng/ml [4]?
Answer: 75%

B2: xi-IgG1-9F4 (antibody, V domains shown)
V domain 1: QQSEAELARPGASVKMSCKASGFTLTTFTIHWVKQRPGQGLEWIGYINPRSGYTDYNQKFKDNTTLTVDKSSSTAYMQLSSLTSEDSAVFYCARSYYDYDVFDYWGQGTTLTV
V domain 2: DVQMTQSPSSLSASLGGKVTITCTARQDINKYIAWYQHKPGKGPRLLIHYTSTLQPGIPSRFSGSGSGTDYSFTISNLEPEDIATYYCLQYDNLVTFGGGTK
Question: Which IC50, entry of HA-pseudotyped lentiviral particles into MDCK cells (luciferase) [5] does the source give for B2 here?
Answer: 10 ng/mL

Question: And the reduction of HApp entry at the highest concentration tested [5]?
Answer: 90%

Question: What about the IC50, entry of HA-pseudotyped lentiviral particles into MDCK cells (luciferase) [6] of the same binder?
Answer: 10 ng/mL

Question: What about the IC50, entry of HA-pseudotyped lentiviral particles into MDCK cells (luciferase) [4] of the same binder?
Answer: 10 ng/mL

Question: And the reduction of HApp entry at the highest concentration tested [4]?
Answer: 90%
